Source: paper PMC3025530
Blank lines part the entries; values can stand above or below the substance they belong to.

What was measured:
[1] = target: ADAM12-Cat (truncated ADAM12 protein consisting of only the pro and catalytic domains) (human) (UniProt O43184); experiment: enzyme inhibition kinetics
[2] = target: ADAM12-S (shorter secreted form of ADAM12), full-length (human) (UniProt O43184); experiment: enzyme inhibition kinetics

Ki [1]: 247 nM | Ki [2]: > 500 nM
Substance: N-TIMP-1[TIMP-2-ABloop] (domain or fragment)

Ki [2]: 190 nM
Substance: N-TIMP-1[V4A] (domain or fragment)

Ki [1]: 1.9 nM | Ki [2]: 16.4 nM
Substance: N-TIMP-1^TACE (V4S/V69L/T98L/TIMP-3-ABloop) (domain or fragment)

Ki [1]: 2.5 nM | Ki [2]: 28.1 nM
Substance: N-TIMP-2-ΔABloop (N-TIMP-2 with the AB-loop deleted) (domain or fragment)

Ki [1]: 0.65 nM
Substance: N-TIMP-2^TACE (S2T/A70S/V71L/TIMP-3-ABloop) (domain or fragment)

Continued, substance first:

Substance: N-TIMP-1[T98L] (domain or fragment)
Ki [1]: 11.2 nM | Ki [2]: 21.7 nM

Substance: N-TIMP-1[TIMP-3-ABloop] (domain or fragment)
Ki [2]: 66 nM

Substance: N-TIMP-1[V4S] (domain or fragment)
Ki [2]: 122 nM

Substance: N-TIMP-2 (N-terminal domain of TIMP-2), wild-type (domain or fragment)
Ki [1]: 5.5 nM | Ki [2]: 69.7 nM

Substance: N-TIMP-2^TACE[F34G] (domain or fragment)
Ki [2]: 18 nM

Substance: N-TIMP-2^TACE[L100E] (domain or fragment)
Ki [1]: 4.1 nM | Ki [2]: 22 nM
